Measurements published in IntAct's records for PubMed 24899623.

B1: Leukocyte immunoglobulin-like receptor subfamily B member 2 (Homo sapiens), Q8N423 (parent)
chain: MTPIVTVLICLGLSLGPRTRVQTGTIPKPTLWAEPDSVITQGSPVTLSCQGSLEAQEYRLYREKKSASWITRIRPELVKNGQFHIPSITWEHTGRYGCQYYSRARWSELSDPLVLVMTGAYPKPTLSAQPSPVVTSGGRVTLQCESQVAFGGFILCKEGEDEHPQCLNSQPHARGSSRAIFSVGPVSPNRRWSHRCYGYDLNSPYVWSSPSDLLELLVPGVSKKPSLSVQPGPVMAPGESLTLQCVSDVGYDRFVLYKEGERDLRQLPGRQPQAGLSQANFTLGPVSRSYGGQYRCYGAHNLSSECSAPSDPLDILITGQIRGTPFISVQPGPTVASGENVTLLCQSWRQFHTFLLTKAGAADAPLRLRSIHEYPKYQAEFPMSPVTSAHAGTYRCYGSLNSDPYLLSHPSEPLELVVSGPSMGSSPPPTGPISTPGPEDQPLTPTGSDPQSGLGRHLGVVIGILVAVVLLLLLLLLLFLILRHRRQGKHWTSTQRKADFQHPAGAVGPEPTDRGLQWRSSPAADAQEENLYAAVKDTQPEDGVEMDTRAAASEAPQDVTYAQLHSLTLRRKATEPPPSQEREPPAEPSIYATLAIH
B2: Leukocyte immunoglobulin-like receptor subfamily B member 2 (Homo sapiens), Q8N423 (parent)
chain: B1 chain
partner: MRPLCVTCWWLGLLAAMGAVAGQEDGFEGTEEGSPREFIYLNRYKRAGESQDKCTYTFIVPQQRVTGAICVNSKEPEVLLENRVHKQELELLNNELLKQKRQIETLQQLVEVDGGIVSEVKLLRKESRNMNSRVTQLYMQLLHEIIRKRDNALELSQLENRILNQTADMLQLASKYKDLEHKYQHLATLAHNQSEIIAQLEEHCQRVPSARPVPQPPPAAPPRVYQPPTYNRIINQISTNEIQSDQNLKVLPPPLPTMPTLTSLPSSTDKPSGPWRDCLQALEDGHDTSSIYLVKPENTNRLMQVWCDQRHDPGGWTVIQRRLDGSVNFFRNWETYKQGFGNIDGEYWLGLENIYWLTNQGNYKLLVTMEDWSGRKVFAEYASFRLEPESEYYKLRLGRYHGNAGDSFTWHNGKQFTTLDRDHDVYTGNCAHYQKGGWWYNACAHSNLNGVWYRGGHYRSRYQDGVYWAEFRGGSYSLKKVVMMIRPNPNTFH

Variants of: B1
Settings: with angl5_human ANGPTL5, Q86XS5
angl5_human ANGPTL5, Q86XS5, sequence (Q86XS5 whole entry): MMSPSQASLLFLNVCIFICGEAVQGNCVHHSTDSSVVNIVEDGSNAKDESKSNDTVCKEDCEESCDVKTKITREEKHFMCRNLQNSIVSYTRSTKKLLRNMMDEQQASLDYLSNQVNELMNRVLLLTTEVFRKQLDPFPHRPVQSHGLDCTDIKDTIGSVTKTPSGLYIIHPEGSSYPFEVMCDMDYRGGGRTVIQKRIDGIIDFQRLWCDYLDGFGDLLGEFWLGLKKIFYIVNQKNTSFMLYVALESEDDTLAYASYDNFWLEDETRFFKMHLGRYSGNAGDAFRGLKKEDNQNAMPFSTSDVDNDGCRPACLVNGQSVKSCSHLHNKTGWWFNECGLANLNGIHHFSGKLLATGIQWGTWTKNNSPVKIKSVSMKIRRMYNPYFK

Variant	effect of a mutation on the interaction
Y96A;T393E	disrupting interaction strength
Q99R	decreasing interaction strength
Y96A;Y394A	disrupting interaction strength
Y394A	decreasing interaction strength
R59A;Y61A;W90A;D200A;N202A;Y205A	decreasing interaction strength
G94D	disrupting interaction strength
T93A	decreasing interaction strength
G97R	with no effect
T393E	decreasing interaction strength
W90A;D200A;N202A;Y205A	decreasing interaction strength
Y100G	decreasing interaction strength
Y96A;G392D	disrupting interaction strength
R95E	decreasing interaction strength
G392D	decreasing interaction strength
R59A;Y61A	with no effect
H92S	decreasing interaction strength
Y96A	decreasing interaction strength

Variants of: B2
Settings: with angl2_human ANGPTL2, Q9UKU9

Variant	effect of a mutation on the interaction
G392D	with no effect
Y96A;T393E	decreasing interaction strength
H92S;T93A;G94D;R95E;Y96A;G97R;Q99R;Y100G	decreasing interaction strength
R59A;Y61A;W90A;D200A;N202A;Y205A	decreasing interaction strength
Y394A	decreasing interaction strength
Y96A;G392D	disrupting interaction strength
T393E	with no effect
Y96A	decreasing interaction strength
Q99R	with no effect
G97R	with no effect
T93A	increasing interaction strength
H92S	with no effect
R59A;Y61A	decreasing interaction strength
R95E	decreasing interaction strength
G94D	decreasing interaction strength
Y96A;Y394A	disrupting interaction strength
Y100G	decreasing interaction strength
W90A;D200A;N202A;Y205A	with no effect
